US20030124664A1

Biological target: human growth hormone (hGH) with the N-terminal phenylalanine, expressed and secreted from plasmid phGH4R (human) (UniProt P01241)
Experiment: cell-based or functional assay

human growth hormone (hGH) with the N-terminal phenylalanine, expressed and secreted from plasmid phGH4R (human), sequence (P01241 27-217): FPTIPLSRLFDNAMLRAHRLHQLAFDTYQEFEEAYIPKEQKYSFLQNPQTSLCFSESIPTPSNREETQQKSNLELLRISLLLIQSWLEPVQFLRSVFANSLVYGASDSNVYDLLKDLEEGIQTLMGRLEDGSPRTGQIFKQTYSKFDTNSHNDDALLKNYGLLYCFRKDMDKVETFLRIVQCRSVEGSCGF

Area % des-phe hGH, control strain lysate, 37° C., 0 h (LC-MS): 0.36 Area %
Area % des-phe hGH, control strain lysate, 37° C., 15 h (LC-MS): 46.8 Area %
Area % des-phe hGH, control strain lysate, 37° C., 24 h (LC-MS): 55.3 Area %
Area % des-phe hGH, control strain lysate, RT, 0 h (LC-MS): 0.36 Area %
Area % des-phe hGH, control strain lysate, RT, 15 h (LC-MS): 1.24 Area %
Area % des-phe hGH, control strain lysate, RT, 24 h (LC-MS): 2.15 Area %
Area % des-phe hGH, control strain lysate, RT, 42 h (LC-MS): 3 Area %
B1: native-sequence aminopeptidase b2324 (product of the E. coli chromosomal yfcK gene) (enzyme)
chain: MRSLTHIAKIEPPPVRRVTYVKHYSIQPANLEFNAEGTPVSRDFDDVYFSNDNGLEETRYVFLGGNQLEVRFPEHPHPLFVVAESGFGTGLNFLTLWQAFDQFREAHPQAQLQRLHFISFEKFPLTRADLALAHQHWPELAPWAEQLQAQWPMPLPGCHRLLLDEGRVTLDLWFGDINELTSQLDDSLNQKVDAWFLDGFAPAKNPDMWTQNLFNAMARLARPGGTLATFTSAGFVRRGLQDAGFTMQKRKGFGRKREMLCGVMEQTLPLPCSAPWFNRTGSSKREAAIIGGGIASALLSLALLRRGWQVTLYCADEAPALGASGNRQGALYPLLSKHDEALNRFFSNAFTFARRFYDQLPVKFDHDWCGVTQLGWDEKSQHKIAQMLSMDLPAELAVAVEANAVEQITGVATNCSGITYPQGGWLCPAELTRNVLELAQQQGLQIYYQYQLQNLSRKDDCWLLNFAGDQQATHSVVVLANGHQISRFSQTSTLPVYSVAGQVSHIPTTPELAELKQVLCYDGYLTPQNPANQHHCIGASYHRGSEDTAYSEDDQQQNRQRLIDCFPQAQWAKEVDVSDKEARCGVRCATRDHLPMVGNVPDYEATLVEYASLAEQKDEAVSAPVFDDLFMFAALGSRGLCSAPLCAEILAAQMSDEPIPMDASTLAALNPNRLWVRKLLKGKAVKAG
